{
  "source": "the nanobody polyreactivity screen of Harvey et al. (2022)",
  "data": [
    {"assay": "yeast display, Sf9 membrane polyspecificity reagent, FACS + sequencing; frameworks hold sequencing errors", "summary_of_the_method": "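Nanobodies came from a synthetic yeast display library in Saccharomyces cerevisiae BJ5465, induced with galactose for 36–48 hours and stained for 1 hour at 4 °C with 10% biotinylated, detergent-solubilized Sf9 membrane reagent. Cells were enriched on streptavidin microbeads and then FACS-sorted, with low and high (top ~1%) gates set on anti-HA fluorescence for expression and streptavidin fluorescence for reagent binding. Each polyreactivity label reflects the gate a clone came from. Genes were amplified by colony PCR, sequenced by MiSeq 2 × 250 and filtered by CDR length.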", "values": [
      {"sequence": "QVQLEESGVGLVQAGGSLRLRCAASGSTVTDNTKGWYRQAPGKERELVAPISGVGSTYYSESVKGRFTISRDNAKNTVYFQMHSLKPEDTAVYYCNVYWGPFYRSGDKYGYWGQGTQVTVSS", "polyreactivity (PSR sort gate)": "low polyreactivity"},
      {"sequence": "QVQLEESGVGLVQAGGSLRLSWAASGFIIYINTMGWYRQAPGKERELVAAISQSGVGTSYADSVKGRFTISRDNAKNTVYLQMNRLKPEDTAVYYCATDCARSDVVDRFDYWGQGTQVTVSS", "polyreactivity (PSR sort gate)": "low polyreactivity"},
      {"sequence": "QVQLEESVGGLVQAGGSLRLSCAASGRIFVRNAMGWYRQAPGKERELVATITSIGGRTYYADSVKGRFTISRDNAKNTVYLQMNSLKPEDTAVYYCAAYNTQSYPAYLRYDYWGQGTQVTVSS", "polyreactivity (PSR sort gate)": "low polyreactivity"},
      {"sequence": "QVQLEETGGGLVQAGASLRISCAASGSIMGQNGMGWYRHAPGKEREFVAGIGYGTTTNYADSVKGRFTTSRDNAKNTVYLQMISMKPEDTAVYYCAAYQGNGYEFYYWGQGTQVTVRS", "polyreactivity (PSR sort gate)": "low polyreactivity"},
      {"sequence": "QVQLEETRGGLVQAGGSLRLSCAASGLFFGTYAMGWYRQPPGKEWELVAGITSSGGTTYYADSVKGRFTISRDNAKNTVYLQMNSLKPEDTAVYYCNARAVQSRYGYYYWGQGTQVTVSS", "polyreactivity (PSR sort gate)": "low polyreactivity"},
      {"sequence": "QVQLEVSAGGLVQAGGSLRLSCAASGSTFGYYAMGWYRQAPGKEWELVAAITSGASTNYSDSVKGRFTISRDNAKNSVYLQMNSLKPEDTAVYYCAAGFQTRTPLNEFDYWGQGTQVTVSS", "polyreactivity (PSR sort gate)": "low polyreactivity"},
      {"sequence": "QVQLGDSGGGLVQAGGSLRLSCAASGSIFSKYAMGWSRKAPGKERELVATISSSVGSTYYADSVKGRFTISRDNAKNSVYLQMNSLKPEDTAVYYCAARPDYEYGTHYRGGYWGQGTQVTVSS", "polyreactivity (PSR sort gate)": "low polyreactivity"},
      {"sequence": "QVQLGESGAGLVQAGGSLRLSCAASGRIFLIKAMGCDRQAPGKERELVAAIRRSVGSTYYADSVKGRFTISRDNAKNTVYLQMNSLKPEDTAVYYCATRDYYTYTGRTRYYYWGQGTQVTVSS", "polyreactivity (PSR sort gate)": "high polyreactivity"},
      {"sequence": "QVQLGESGGCLVQAGGSLRLSCAASGSPFYTYAMGWYRQAPGKERELVAASSFGGGSTYADSVKGRFTISRDNAKNTLYLQMNSLKPDDTAGYYCNTDLYLYGWYPREVQQYAGGDYWGQGTQVTVSS", "polyreactivity (PSR sort gate)": "low polyreactivity"},
      {"sequence": "QVQLGESGGGLVEAGGSLRLSCAASGSTCKFYVMGWYRQAPGKERELVAAIAIGGSTNYADSVKGRFTISRDNAKNTVSVQMNSLKPEDTAVYYCAAELLQIHYYYVYLSPSFKCDYWGQGTQVTGSS", "polyreactivity (PSR sort gate)": "low polyreactivity"},
      {"sequence": "QVQLGESGGGLVLAGGSLRLSCAASGSIFTHYAIGWYRQAPGKERELVAAISWSGGSTYYADSVKGRFTISRDNAQNTVYLQMNSLKPEDTAVYYCAALYYSRLSVSGEYDYWGQGTQVTVSS", "polyreactivity (PSR sort gate)": "high polyreactivity"},
      {"sequence": "QVQLGESGGGLVQAGGSLRISCAASGSILIANAMGWYRQAPGKERELVAPISRSGSTTYYADSVKGRFTISRDNAKNTVYLQMNSLKPEDTAVYYCNARYSLHSYYWFIYDSWGQGTQVTGSS", "polyreactivity (PSR sort gate)": "low polyreactivity"},
      {"sequence": "QVQLGESGGGLVQAGGSLRLICAASGFIVTTYVMGWYRQAPGKERELVAVISRSGGRTYYADSVKGRFTISRDNAKNTVYLQMNSLKPEDTAVYYCNVDIPVLSHIEYYYWGQGTQVTVSS", "polyreactivity (PSR sort gate)": "low polyreactivity"},
      {"sequence": "QVQLGESGGGLVQAGGSLRLRCAASGSTFEFYAMGWYRQAPGKERELVASITSSSGPTYYADSVKGRFTISRDNAKNTVYLQMNSLKPEDTAVFYCAKRPIRYYHLLRGNYWGQGTQVTVSS", "polyreactivity (PSR sort gate)": "low polyreactivity"},
      {"sequence": "QVQLGESGGGLVQAGGSLRLSCAASGFTFTHYSMGWYRQAPGKERELVAAISTSGGSTYYADSVKGRFTISRDTAKNSVYLQMNSLKPEDTAVYYCAARRDGCVLWGYYYWGQGTQVTVSS", "polyreactivity (PSR sort gate)": "low polyreactivity"},
      {"sequence": "QVQLGESGGGLVQAGGSLRLSCAASGGTYTHYGMGWYRQATGKERELVAAITWTASSTYYADSVKGRFTISRDNAKNTVYLQMNSLKPEDTAVYYCATSYYYWGHTYDYWGQGTQVTVSS", "polyreactivity (PSR sort gate)": "low polyreactivity"},
      {"sequence": "QVQLGESGGGLVQAGGSLRLSCAASGIIFRRYAMGWYRQAPGKERELVAVISSGGSTNYADSVKGRFTISRDNAKNTVYLQMNSLKPEDTAVYYCAAPSQSRGYYYWGQGTQVTVSS", "polyreactivity (PSR sort gate)": "high polyreactivity"},
      {"sequence": "QVQLGESGGGLVQAGGSLRLSCAASGIIIFLYAMGWYRPAPGKEREFVAAINYSSGSTYYADSVKGRFTISRDNAKNTVYLQMNSLKPEDTAVYYCAADPVHRYPGTGGYWGQGTQVTVSS", "polyreactivity (PSR sort gate)": "low polyreactivity"},
      {"sequence": "QVQLGESGGGLVQAGGSLRLSCAASGLTFPVYPMGWYRQAPGKEREFVTAITYNGGRTYYADSVKGRFTISRDNAKNTVYLQMNSLKPEDTAVYYCNAARSRGANLVPPYRLYYWGQGTQVTVSS", "polyreactivity (PSR sort gate)": "low polyreactivity"},
      {"sequence": "QVQLGESGGGLVQAGGSLRLSCAASGRIFAYYTMGWYRQAPGKERELVAAITSGGSTYYADSVKGRFTISRDYAKNTVYLQMNSLKPEATAVYYCAAGWYTPVYLYYYWGQGTQVTVSS", "polyreactivity (PSR sort gate)": "high polyreactivity"},
      {"sequence": "QVQLGESGGGLVQAGGSLRLSCAASGRIIPYYAMGWYRQAPGKERELVAAISLSGGSTYYADSVKGRFTISRDIAKNTVYLQMNSLKPEDTAVYYCNAVASTYGYYWYPGLGYDYWGQGTQVTVSS", "polyreactivity (PSR sort gate)": "low polyreactivity"},
      {"sequence": "QVQLGESGGGLVQAGGSLRLSCAASGRILAKYAMGWSRQAPWKEREFVAAISYSGGSTYYADSVKGRFTISRDNAKNTVYLQMNSLKPEDTAVYYCAARYTFDRWKFGYWGQGTQVTVSS", "polyreactivity (PSR sort gate)": "high polyreactivity"},
      {"sequence": "QVQLGESGGGLVQAGGSLRLSCAASGRILSVYVMGWYRQAPGKERELVAAIRRGGYTYYADSVKGRFTISRDNAKNTVYLQMNSLKQEDTAVYYCNARQRPPPYYYWGQGTQLTVSS", "polyreactivity (PSR sort gate)": "high polyreactivity"},
      {"sequence": "QVQLGESGGGLVQAGGSLRLSCAASGRTFIYDAMGWYRQAPGKERELVAGISRNGGRTYYADSVKGRFTISRDNAKNTVYLKMNSLKPEDTAVYYCIARTYSYRGYNYWGQGTQVTVSS", "polyreactivity (PSR sort gate)": "high polyreactivity"},
      {"sequence": "QVQLGESGGGLVQAGGSLRLSCAASGSIFNYYTMGWYRQAPGKERELVAAISSSGGSTYYADSVKGRFTISRDNAKNTVYLQMNSRKPEDTAVYYCAALGRYFTSAGGYWGQGTQVTVSS", "polyreactivity (PSR sort gate)": "high polyreactivity"},
      {"sequence": "QVQLGESGGGLVQAGGSLRLSCAASGSIFSNYAMGWYRQAPWKERELVATIRLSGGSTYYADSVKGRFTISRDNAKNTVYLQMNSLKPEDTAVYDCAARIHWPYWYARLDYWGQVTQVTVSS", "polyreactivity (PSR sort gate)": "high polyreactivity"},
      {"sequence": "QVQLGESGGGLVQAGGSLRLSCAASGSIFTGNAMGWYRQAPGKERELVAAITNGGITNYADSVKRRFTISRDNAKNTFYLQMNSLKPEDTAVYYCAADYVDFYSFRRFDYWGQGSQVTVSS", "polyreactivity (PSR sort gate)": "low polyreactivity"},
      {"sequence": "QVQLGESGGGLVQAGGSLRLSCAASGSTFGGYAMGWYRQAPGKERELVAAISSSGTSTYYADSVKGRFTISRDNAKNTVYLQMNSLKPDDTAVYYCATDFSFFSRFDYWGQGTQVTVSS", "polyreactivity (PSR sort gate)": "low polyreactivity"},
      {"sequence": "QVQLGESGGGLVQAGGSLRLSCAASGSTFPRNAMGWYRQATGKERELVATITSSGGGTYYADSVKGRFTISRDNAKITVYLQMNSLKPEHTAVYYCNADGPAGDAFDYWGQGTQVTVSS", "polyreactivity (PSR sort gate)": "low polyreactivity"},
      {"sequence": "QVQLGESGGGLVQAGGSLRLSCAASGSTLRNNAMGWYRQAPGKERELVASIRTRGGSTRYADSVKGRFTISRDNAKNTVYLQMNSLKPEDTAVYYCAAQYYGKGWQLDYWGQGSQVTVSS", "polyreactivity (PSR sort gate)": "high polyreactivity"},
      {"sequence": "QVQLGESGGGLVQAGGSLRLSCAPSGNNFVGNAMGWCRQAAGKERELVAAIRRSGGTTYYADSVKGRFTISRDNAKNTVYLQMNSLKPEDTAVYYCAASRPYQGDYWGQGTQVTVSS", "polyreactivity (PSR sort gate)": "low polyreactivity"}
    ]}
  ]
}
